Results reported in patent publication US20230165967A1 (TAE LIFE SCIENCES, published 2023).
Like-named read-outs stand apart in the source and are kept apart here. Blank lines part the entries; values can stand above or below the binder they belong to.

How the values were obtained:
[1] = target: T1, recombinant human FcRn (Sino Biological) (human, UniProt P55899 24-297; P61769 21-119); test: ELISA at pH 6.0: plate coated with recombinant human FcRn, antibody titrated, HRP goat anti-human Fc, OD650
[2] = target: T2, recombinant human soluble ECD of CD64/FCGRIA (human, UniProt P12314 16-292); test: ELISA: plate coated with recombinant human CD64/FCGRIA ECD, antibody titrated, HRP goat anti-human Fc, OD650
T2 construct: extracellular domain; also called FcγRI
T2 sequence (P12314 16-292): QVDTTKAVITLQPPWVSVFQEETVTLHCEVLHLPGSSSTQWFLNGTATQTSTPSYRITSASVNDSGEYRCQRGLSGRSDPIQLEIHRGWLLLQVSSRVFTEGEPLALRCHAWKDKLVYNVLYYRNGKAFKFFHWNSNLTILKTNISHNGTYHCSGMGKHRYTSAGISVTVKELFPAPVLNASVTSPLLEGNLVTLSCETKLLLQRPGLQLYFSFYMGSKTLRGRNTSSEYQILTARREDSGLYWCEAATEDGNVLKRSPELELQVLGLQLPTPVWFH

[3] = target: T3, FcγRIIa (CD32) (Sino Biological, cat #10374-H08H) (UniProt P12318 34-218); test: Sandwich ELISA: anti-His capture of His-tagged FcγRIIA mixed with titrated antibody, HRP goat anti-human IgG Fc, OD650
T3 sequence (looked up): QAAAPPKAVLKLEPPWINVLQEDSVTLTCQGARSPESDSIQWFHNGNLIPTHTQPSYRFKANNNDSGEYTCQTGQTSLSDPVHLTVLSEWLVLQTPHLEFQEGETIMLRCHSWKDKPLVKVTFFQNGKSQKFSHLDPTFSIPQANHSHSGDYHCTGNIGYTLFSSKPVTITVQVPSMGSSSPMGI

[4] = target: T4, recombinant human CDH3 full-length (human, UniProt P22223 25-829, limits assumed); test: ELISA: plate coated with recombinant human full-length CDH3, antibody titrated 0.0003-20 nM, HRP goat anti-human Fc, OD650
T4 construct: plate-coated recombinant protein, not on cells

[5] = target: T5, recombinant human soluble ECD of hCD16a/FCGRIIIA (human, UniProt P08637 17-208); test: ELISA: plate coated with recombinant human CD16a/FCGRIIIA ECD, antibody titrated 0.005-80 ug/ml, HRP goat anti-human Fc, OD650
T5 construct: extracellular domain; also called FcγRIIIa
T5 sequence (P08637 17-208): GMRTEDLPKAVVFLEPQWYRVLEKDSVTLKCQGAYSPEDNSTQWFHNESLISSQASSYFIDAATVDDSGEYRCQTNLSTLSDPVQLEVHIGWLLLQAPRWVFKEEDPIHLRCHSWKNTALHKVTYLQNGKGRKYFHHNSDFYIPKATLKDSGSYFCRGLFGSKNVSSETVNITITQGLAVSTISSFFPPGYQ

[6] = target: T6, human C1q (sigma Cat #C1740) (human, UniProt P02745 23-245; P02746 28-253; P02747 29-245); test: ELISA: plate coated with antibody at 1 ug/ml, human C1q titrated 0.625-40 ug/ml, rabbit anti-human C1q then HRP goat anti-rabbit, OD650
T6 sequence (P02745 23-245 limits assumed, chain 1 of 3): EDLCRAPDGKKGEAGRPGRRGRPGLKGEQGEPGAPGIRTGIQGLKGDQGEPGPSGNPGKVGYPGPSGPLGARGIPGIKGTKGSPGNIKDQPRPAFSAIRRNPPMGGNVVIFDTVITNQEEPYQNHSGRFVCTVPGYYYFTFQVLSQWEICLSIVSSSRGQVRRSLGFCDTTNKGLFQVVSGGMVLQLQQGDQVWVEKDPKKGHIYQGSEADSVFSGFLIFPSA
T6 sequence (P02746 28-253 limits assumed, chain 2 of 3): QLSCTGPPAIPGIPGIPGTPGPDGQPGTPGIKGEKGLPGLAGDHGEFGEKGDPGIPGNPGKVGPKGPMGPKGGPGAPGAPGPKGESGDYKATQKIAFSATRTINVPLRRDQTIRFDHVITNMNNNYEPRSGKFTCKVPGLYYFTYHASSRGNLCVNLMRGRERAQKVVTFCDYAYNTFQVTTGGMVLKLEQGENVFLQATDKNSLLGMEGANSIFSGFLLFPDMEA
T6 sequence (P02747 29-245 limits assumed, chain 3 of 3): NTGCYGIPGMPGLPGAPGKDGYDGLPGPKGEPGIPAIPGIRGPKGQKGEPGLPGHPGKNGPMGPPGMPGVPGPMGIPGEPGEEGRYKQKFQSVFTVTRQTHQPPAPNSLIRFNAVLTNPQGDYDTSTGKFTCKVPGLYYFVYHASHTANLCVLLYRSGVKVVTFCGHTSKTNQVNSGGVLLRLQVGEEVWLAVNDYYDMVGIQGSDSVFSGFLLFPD

[7] = target: T1, recombinant human FcRn (Sino Biological); test: ELISA at pH 6.0: plate coated with recombinant human FcRn, antibody titrated, HRP goat anti-human Fc, OD650; remark: listed apart in the source
[8] = target: T2, recombinant human soluble ECD of …; test: ELISA: plate coated with recombinant human CD64/FCGRIA ECD, antibody titrated, HRP goat anti-human Fc, OD650; remark: listed apart in the source
[9] = target: T7, recombinant human soluble extracellular domain (ECD) of Trop2 (human, UniProt P09758 27-274); test: ELISA: plate coated with recombinant human Trop2 ECD, antibody titrated 0.0003-20 nM, HRP goat anti-human Fc, OD650
T7 construct: extracellular domain; Bought protein
T7 sequence (looked up): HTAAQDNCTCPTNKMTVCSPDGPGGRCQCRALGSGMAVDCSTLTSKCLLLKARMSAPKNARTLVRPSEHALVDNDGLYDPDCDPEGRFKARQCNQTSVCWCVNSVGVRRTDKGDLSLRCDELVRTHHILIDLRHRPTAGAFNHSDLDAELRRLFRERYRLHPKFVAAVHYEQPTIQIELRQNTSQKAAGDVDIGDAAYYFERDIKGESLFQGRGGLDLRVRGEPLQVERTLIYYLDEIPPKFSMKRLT

[10] = target: T3, FcγRIIa (CD32) (Sino Biological, cat …); test: Sandwich ELISA: anti-His capture of His-tagged FcγRIIA mixed with titrated antibody, HRP goat anti-human IgG Fc, OD650; remark: listed apart in the source
[11] = target: T5, recombinant human soluble ECD of …; test: ELISA: plate coated with recombinant human CD16a/FCGRIIIA ECD, antibody titrated 0.005-80 ug/ml, HRP goat anti-human Fc, OD650; remark: listed apart in the source
[12] = target: T6, human C1q (sigma Cat #C1740); test: ELISA: plate coated with antibody at 1 ug/ml, human C1q titrated 0.625-40 ug/ml, rabbit anti-human C1q then HRP goat anti-rabbit, OD650; remark: listed apart in the source
[13] = target: T1, recombinant human FcRn (Sino Biological); test: ELISA at pH 6.0: plate coated with recombinant human FcRn, antibody titrated, HRP goat anti-human Fc, OD650; remark: listed apart in the source
[14] = target: T2, recombinant human soluble ECD of …; test: ELISA: plate coated with recombinant human CD64/FCGRIA ECD, antibody titrated, HRP goat anti-human Fc, OD650; remark: listed apart in the source
[15] = target: T5, recombinant human soluble ECD of …; test: ELISA: plate coated with recombinant human CD16a/FCGRIIIA ECD, antibody titrated 0.005-80 ug/ml, HRP goat anti-human Fc, OD650; remark: listed apart in the source

B1: Anti-CDH3 Ab L234A, L235A, L328C (antibody, human IgG1, kappa, L234A L235A)
heavy: QVQLQQSGPGLVKPSQTLSLTCAISGDSVSSQSAAWNWIRQSPSRGLEWLGRIYYRSKWYNDYALSVKSRITINPDTSKNQFSLQLNSVTPEDTAVYYCARGEGYGREGFAIWGQGTLVTVSSASTKGPSVFPLAPSSKSTSGGTAALGCLVKDYFPEPVTVSWNSGALTSGVHTFPAVLQSSGLYSLSSVVTVPSSSLGTQTYICNVNHKPSNTKVDKRVEPKSCDKTHTCPPCPAPEAAGGPSVFLFPPKPKDTLMISRTPEVTCVVVDVSHEDPEVKFNWYVDGVEVHNAKTKPREEQYNSTYRVVSVLTVLHQDWLNGKEYKCKVSNKACPAPIEKTISKAKGQPREPQVYTLPPSREEMTKNQVSLTCLVKGFYPSDIAVEWESNGQPENNYKTTPPVLDSDGSFFLYSKLTVDKSRWQQGNVFSCSVMHEALHNHYTQKSLSLSPGK
light: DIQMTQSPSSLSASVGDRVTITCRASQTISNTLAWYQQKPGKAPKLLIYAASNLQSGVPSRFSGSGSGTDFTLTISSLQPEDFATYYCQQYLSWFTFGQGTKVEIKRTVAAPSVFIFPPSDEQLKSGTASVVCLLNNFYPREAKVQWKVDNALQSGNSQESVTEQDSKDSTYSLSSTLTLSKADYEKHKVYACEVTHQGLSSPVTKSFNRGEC
notes: Fc variant; wild-type light chain; also called Anti-CDH3 Mab triple mutant; triple mutation L234A, L235A, and L328C
binding result [1]: binds | binding result [2]: binds | binding result [3]: binds | EC50 (read off the curve) [4]: ~0.04 nM | binding result [5]: no binding (tested: 80 ug/ml) | binding result [6]: binds

B2: Anti-Trop2 Ab Wild Type (antibody, human IgG1, kappa)
heavy: not shown
light: DIQLTQSPSSLSASVGDRVSITCKASQDVSIAVAWYQQKPGKAPKLLIYSASYRYTGVPDRFSGSGSGTDFTLTISSLQPEDFAVYYCQQHYITPLTFGAGTKVEIKRTVAAPSVFIFPPSDEQLKSGTASVVCLLNNFYPREAKVQWKVDNALQSGNSQESVTEQDSKDSTYSLSSTLTLSKADYEKHKVYACEVTHQGLSSPVTKSFNRGEC
notes: human IgG1 constant region; also called Anti-Trop2 Mab; anti-TROP2 mAb
binding result [7]: binds | EC50 (read off the curve) [8]: ~0.08 µg/mL | EC50 (read off the curve) [9]: ~0.06 nM | binding result [10]: binds | EC50 (read off the curve) [11]: ~2 µg/mL | binding result [12]: binds

B5: Anti-Trop2 Ab L328C (antibody, human IgG1, kappa)
heavy: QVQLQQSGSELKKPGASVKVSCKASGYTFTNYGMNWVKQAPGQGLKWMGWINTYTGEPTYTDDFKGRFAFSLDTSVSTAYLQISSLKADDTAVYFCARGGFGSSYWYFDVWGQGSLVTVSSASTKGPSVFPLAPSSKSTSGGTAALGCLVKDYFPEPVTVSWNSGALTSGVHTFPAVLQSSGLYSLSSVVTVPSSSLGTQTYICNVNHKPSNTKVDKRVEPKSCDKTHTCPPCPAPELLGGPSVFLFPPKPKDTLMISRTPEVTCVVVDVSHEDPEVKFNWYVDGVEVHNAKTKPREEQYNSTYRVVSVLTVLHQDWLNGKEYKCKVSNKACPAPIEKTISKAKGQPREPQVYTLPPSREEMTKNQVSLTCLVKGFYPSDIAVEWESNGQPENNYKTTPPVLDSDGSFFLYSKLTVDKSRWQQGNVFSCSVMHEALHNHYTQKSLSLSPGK
light: B2 light
notes: Fc variant; wild-type light chain; also called Anti-Trop2 Mab single mutant; single mutation L328C
binding result [7]: binds | EC50 (read off the curve) [8]: ~0.2 µg/mL | EC50 (read off the curve) [9]: ~0.06 nM | binding result [10]: binds | binding result [12]: binds

B6: Anti-EGFR Ab No. 3 Wild Type (antibody, human IgG1)
heavy: not shown
light: DIQMTQSPSSLSASVGDRVTITCRSSQNIVHSNGNTYLDWYQQTPGKAPKLLIYKVSNRFSGVPSRFSGSGSGTDFTFTISSLQPEDIATYYCFQYSHVPWTFGQGTKLQITREVAAPSVFIFPPSDEQLKSGTASVVCLLNNFYPREAKVQWKVDNALQSGNSQESVTEQDSKDSTYSLSSTLTLSKADYEKHKVYACEVTHQGLSSPVTKSFNRGEC
notes: human IgG1 constant region; also called Anti-EGFR Mab No. 3; anti-EGFR mAb No. 3
binding result [13]: binds | EC50 (read off the curve) [14]: ~0.05 µg/mL | EC50 (read off the curve) [15]: ~2 µg/mL

The next lines start with the values.

binding result [7]: binds | binding result [8]: no binding (tested: 30 ug/ml) | EC50 (read off the curve) [9]: ~0.06 nM | binding result [10]: binds | binding result [11]: no binding (tested: 80 ug/ml) | binding result [12]: binds
B3: Anti-Trop2 Ab L234A, L235A, L328C (antibody, human IgG1, kappa, L234A L235A)
heavy: QVQLQQSGSELKKPGASVKVSCKASGYTFTNYGMNWVKQAPGQGLKWMGWINTYTGEPTYTDDFKGRFAFSLDTSVSTAYLQISSLKADDTAVYFCARGGFGSSYWYFDVWGQGSLVTVSSASTKGPSVFPLAPSSKSTSGGTAALGCLVKDYFPEPVTVSWNSGALTSGVHTFPAVLQSSGLYSLSSVVTVPSSSLGTQTYICNVNHKPSNTKVDKRVEPKSCDKTHTCPPCPAPEAAGGPSVFLFPPKPKDTLMISRTPEVTCVVVDVSHEDPEVKFNWYVDGVEVHNAKTKPREEQYNSTYRVVSVLTVLHQDWLNGKEYKCKVSNKACPAPIEKTISKAKGQPREPQVYTLPPSREEMTKNQVSLTCLVKGFYPSDIAVEWESNGQPENNYKTTPPVLDSDGSFFLYSKLTVDKSRWQQGNVFSCSVMHEALHNHYTQKSLSLSPGK
light: B2 light
notes: Fc variant; wild-type light chain; also called Anti-Trop2 Mab triple mutant; triple mutation L234A, L235A, and L328C

EC50 (read off the curve) [7]: ~1 µg/mL | binding result [8]: binds | EC50 (read off the curve) [9]: ~0.06 nM | binding result [10]: binds | binding result [12]: binds
B4: Anti-Trop2 Ab L234A, L235A (antibody, human IgG1, kappa, L234A L235A)
heavy: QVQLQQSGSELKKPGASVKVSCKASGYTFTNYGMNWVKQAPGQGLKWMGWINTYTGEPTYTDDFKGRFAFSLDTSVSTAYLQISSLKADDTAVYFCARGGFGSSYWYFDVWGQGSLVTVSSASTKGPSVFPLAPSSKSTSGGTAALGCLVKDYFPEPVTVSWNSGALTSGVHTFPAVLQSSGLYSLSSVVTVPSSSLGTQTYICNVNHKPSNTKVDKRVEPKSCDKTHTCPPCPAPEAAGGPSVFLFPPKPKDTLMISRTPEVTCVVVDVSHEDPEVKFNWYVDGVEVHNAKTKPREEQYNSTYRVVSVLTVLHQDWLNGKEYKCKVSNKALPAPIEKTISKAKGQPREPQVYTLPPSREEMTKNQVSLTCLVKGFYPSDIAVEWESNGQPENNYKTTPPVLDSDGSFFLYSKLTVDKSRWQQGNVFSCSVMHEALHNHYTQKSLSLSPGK
light: B2 light
notes: Fc variant; wild-type light chain; also called Anti-Trop2 Mab double mutant; double mutation L234A and L235A

binding result [15]: no binding (tested: 80 ug/mL)
B7: Anti-EGFR Ab No. 3 L234A, L235A, L328C (antibody, human IgG1, L234A L235A)
heavy: QVQLQQSGAEVKKPGSSVKVSCKASGYTFTNYYIYWVRQAPGQGLEWIGGINPTSGGSNFNEKFKTRVTITADESSTTAYMELSSLRSEDTAFYFCTRQGLWFDSDGRGFDFWGQGTTVTVSSASTKGPSVFPLAPSSKSTSGGTAALGCLVKDYFPEPVTVSWNSGALTSGVHTFPAVLQSSGLYSLSSVVTVPSSSLGTQTYICNVNHKPSNTKVDKRVEPKSCDKTHTCPPCPAPEAAGGPSVFLFPPKPKDTLMISRTPEVTCVVVDVSHEDPEVKFNWYVDGVEVHNAKTKPREEQYNSTYRVVSVLTVLHQDWLNGKEYKCKVSNKACPAPIEKTISKAKGQPREPQVYTLPPSREEMTKNQVSLTCLVKGFYPSDIAVEWESNGQPENNYKTTPPVLDSDGSFFLYSKLTVDKSRWQQGNVFSCSVMHEALHNHYTQKSLSLSPGK
light: B6 light
notes: Fc variant; wild-type light chain, this heavy chain reads VDKRV where the wild type reads VDKKV; also called Anti-EGFR Mab No. 3 triple mutant; triple mutation L234A, L235A, and L328C

binding result [13]: binds | EC50 (read off the curve) [14]: ~4 µg/mL
B8: Anti-EGFR Ab No. 3 L234A, L235A (antibody, human IgG1, L234A L235A)
heavy: not shown
light: B6 light
notes: Fc variant; wild-type light chain; also called Anti-EGFR Mab No. 3 double mutant; double mutation L234A and L235A

EC50 (read off the curve) [14]: ~0.1 µg/mL
B9: Anti-EGFR Ab No. 3 L328C (antibody, human IgG1)
heavy: not shown
light: B6 light
notes: Fc variant; wild-type light chain, this heavy chain reads VDKRV where the wild type reads VDKKV; also called Anti-EGFR Mab No. 3 single mutant; single mutation L328C
